The test system of series [1] is Cc1ncc(C[n+]2csc(CCO[P@](=O)(O)OP(=O)(O)O)c2C)c(N)n1. The experiment in a line: purified protein. Particulars: varied: cofactor. The format is biochemical, Pseudomonas aeruginosa.
Series [2] has the same test system. The experiment in a line: steady-state kinetics (Km). The series is classed as biochemical, Klebsiella pneumoniae. Particulars: Mg2+ active site; diphosphate in asparagine-rich region with H bond from Ser52; varied: cofactor.
Another series has as its system O=CC(O)COP(=O)(O)O. In words: steady-state kinetics (Km), IspC-coupled assay. The format is biochemical, Klebsiella pneumoniae. The following applies: ThDP, Mg2+.
Another series concerns CC(=O)C(=O)O. The experiment in a line: steady-state kinetics (Km), IspC-coupled assay. The following applies: ThDP, Mg2+. The format is biochemical, Klebsiella pneumoniae.

The Km is the substrate concentration at which the rate is half of its maximum. As to “1-deoxy-D-xylulose-5-phosphate synthase (paDXPS) (Pseudomonas aeruginosa LESB58; DEL206-245/INS205GGGGGG)”, in series [1], the Km worked out at 0.0965 ± 0.014 µM.
Turning to “1-deoxy-D-xylulose-5-phosphate synthase (kpDXPS) (Klebsiella pneumoniae subsp. pneumoniae MGH 78578; DEL197-240/INS196GGGGGG)”, the Km in series [2] came to 0.11 ± 0.017 µM; in the series with O=CC(O)COP(=O)(O)O, 170 ± 43 µM; with CC(=O)C(=O)O, 113 ± 34 µM.

Source of the values: article PMC10504544, “1-deoxy-D-xylulose-5-phosphate synthase from Pseudomonas aeruginosa and Klebsiella pneumoniae reveals conformational changes upon cofactor binding” (The Journal of Biological Chemistry, 2023).
